Measurements as given in article PMC12398788, “Molecular basis of the autoregulatory mechanism of motor neuron-related splicing factor 30”.

Key:
SPF30 197-217 peptide = target: T1, SPF30 197-217 peptide (human, UniProt O75940 197-217); experiment: EMSA; EMSA: 40 mM Tris-HCl pH 7.4, 30 mM KCl, 1 mM MgCl2, 0.01% IGEPAL CA-630, 25 °C 30 min, 20 fmol RNA in 12 µl; UV cross-linking: 50 mM Tris-HCl pH 7.4, 150 mM NaCl, 0.5% IGEPAL CA-630, 4 °C 4 h; conditions: label: biotin; stem-loop predicted at intron 3/exon 4a/exon 4
T1 chain: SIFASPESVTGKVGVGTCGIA

SPF30 ΔC1 = target: T2, SPF30 ΔC1 (human, UniProt O75940 1-164); experiment: EMSA; 200 or 400 ng protein; EMSA: 40 mM Tris-HCl pH 7.4, 30 mM KCl, 1 mM MgCl2, 0.01% IGEPAL CA-630, 25 °C 30 min, 20 fmol RNA in 12 µl; UV cross-linking: 50 mM Tris-HCl pH 7.4, 150 mM NaCl, 0.5% IGEPAL CA-630, 4 °C 4 h; conditions: protein: recombinant; tags: N-terminal 6xHis; label: biotin; stem-loop predicted at intron 3/exon 4a/exon 4
T2 sequence: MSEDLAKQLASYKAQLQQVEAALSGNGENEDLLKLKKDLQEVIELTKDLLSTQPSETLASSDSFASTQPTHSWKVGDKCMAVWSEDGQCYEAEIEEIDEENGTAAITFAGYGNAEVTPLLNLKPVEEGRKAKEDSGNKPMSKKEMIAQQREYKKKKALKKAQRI

6xHis-SPF30 WT = target: T3, 6xHis-SPF30 WT (human, UniProt O75940 1-238); experiment: as above; conditions: protein: recombinant; tags: N-terminal 6xHis (pCold I); C-terminal FLAG from primer KI-125; label: biotin; stem-loop predicted at intron 3/exon 4a/exon 4
T3 sequence: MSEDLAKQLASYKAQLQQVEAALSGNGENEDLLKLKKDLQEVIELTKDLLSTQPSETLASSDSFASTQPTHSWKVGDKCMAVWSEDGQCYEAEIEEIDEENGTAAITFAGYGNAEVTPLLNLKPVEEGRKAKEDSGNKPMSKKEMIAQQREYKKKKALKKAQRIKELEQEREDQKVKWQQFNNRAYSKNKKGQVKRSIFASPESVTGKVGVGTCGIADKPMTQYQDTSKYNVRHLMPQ

SPF30 ΔC5 = target: T4, SPF30 ΔC5 (human, UniProt O75940 1-217); experiment: as above; conditions: protein: recombinant; tags: N-terminal 6xHis; label: biotin; stem-loop predicted at intron 3/exon 4a/exon 4
T4 sequence: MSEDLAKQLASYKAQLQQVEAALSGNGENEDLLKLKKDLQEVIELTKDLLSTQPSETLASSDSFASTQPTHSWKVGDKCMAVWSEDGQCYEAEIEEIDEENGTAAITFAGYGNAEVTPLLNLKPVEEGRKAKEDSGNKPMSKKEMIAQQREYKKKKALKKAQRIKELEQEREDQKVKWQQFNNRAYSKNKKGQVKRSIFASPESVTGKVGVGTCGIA

SPF30 FSV3A = target: T5, SPF30 FSV3A (human, UniProt O75940 1-238, F199A;S201A;V209A); experiment: EMSA; 200 or 400 ng protein; distinct mobility from WT; EMSA: 40 mM Tris-HCl pH 7.4, 30 mM KCl, 1 mM MgCl2, 0.01% IGEPAL CA-630, 25 °C 30 min, 20 fmol RNA in 12 µl; UV cross-linking: 50 mM Tris-HCl pH 7.4, 150 mM NaCl, 0.5% IGEPAL CA-630, 4 °C 4 h; conditions: protein: recombinant; tags: N-terminal 6xHis; label: biotin; stem-loop predicted at intron 3/exon 4a/exon 4
T5 sequence: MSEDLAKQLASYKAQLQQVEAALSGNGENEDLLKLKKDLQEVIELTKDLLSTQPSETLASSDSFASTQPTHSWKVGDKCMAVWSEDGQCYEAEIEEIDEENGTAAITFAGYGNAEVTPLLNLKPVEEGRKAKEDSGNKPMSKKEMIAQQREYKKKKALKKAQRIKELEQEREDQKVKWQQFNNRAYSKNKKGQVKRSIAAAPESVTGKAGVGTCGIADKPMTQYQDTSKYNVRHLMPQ

B1: BT-RNA WT (ssRNA)
RNA: CUGCUUACAGCCAUGAUAUCUUUACAGGUGUUAUGAAGCGG
- binding result (SPF30 197-217 peptide): no binding
- binding result (SPF30 ΔC1): no binding
- binding result (6xHis-SPF30 WT): binds
- binding result (SPF30 ΔC5): binds
- binding result (SPF30 FSV3A): binds
